# In article PMC10165346 (Computational and Structural Biotechnology Journal, 2023):
# Columns and labels:
# [1] = molecular target: the molecule itself; assay: SEC-MALS
# [2] = molecular target: the molecule itself; assay: cross-linking
protein,measurement,setting,value
"mouse TRIM56 coiled-coil domain (residues 215-303) (domain or fragment, UniProt Q80VI1 215-303, looked up) GLEELLAGVDSNLVELEATRVAEKEALALLREQAASVGTQVEEAAERILKSLLAQKQEVLGQLRALVEAAEEATRERLTKIERQEQVAK",stoichiometry N,[1],4
"mouse TRIM56 coiled-coil domain mutant (L244A, V251A, V255A, I262A, L266A, Q269A, V273A, Q276A, L277A, L280A, R291A) (domain or fragment, UniProt Q80VI1 215-303, looked up) GLEELLAGVDSNLVELEATRVAEKEALALAREQAASAGTQAEEAAERALKSALAAKQEALGAARAAVEAAEEATREALTKIERQEQVAK",stoichiometry N,[1],2
"mouse TRIM56 RING domain (residues 2-88) (domain or fragment, UniProt Q80VI1 2-88, looked up) NSKVSSPTLLEALSSDFLACKICLEQLHTPKTLPCLHTYCQDCLAQLDIGGQVRCPECREIVPVPAEGVAAFKTNFFVNGLLDLVKA",stoichiometry N,[1],2
"FLAG-tagged full-length mouse TRIM56, wild type (natural protein, UniProt Q80VI1 1-734, looked up) MNSKVSSPTLLEALSSDFLACKICLEQLHTPKTLPCLHTYCQDCLAQLDIGGQVRCPECREIVPVPAEGVAAFKTNFFVNGLLDLVKARAPGDVHSGKPTCALCPLVGGKSSGGPATARCLDCADDLCQACADGHRCSRQTHKHRVVDLVGYRAGWYDEEARERQASQCPQHPGEALCFLCQPCSQLLCKDCRLGPHIDHPCLPLAEAVRSRKPGLEELLAGVDSNLVELEATRVAEKEALALLREQAASVGTQVEEAAERILKSLLAQKQEVLGQLRALVEAAEEATRERLTKIERQEQVAKAAAAFARRVLSLGLEAEILSLEGAITQRLRQLQDAPWTSGPTRCVLPQLELHPGLEDKNCHLLRLIFEEPKQSPKDSGKGGAGTQGGDEAQGQGDDRTKIGKQGGAQPLTPKEGKDQNPQEDDGVFIERGNRPNKKKKCKGRGKSVSREPSPILRPNLEGSGLLPRPVFSWSFPTRMPGDKRSPRITGLCPYGPQEILVADEQNRVLKRFSLNGDYKGTVQVPEGCSPCSVAALQNAVAFSANAKLYLVSPDGEIQWRRSLSLTQSSHAVAAMPCGDRVAVSVAGHVEVYKKDGSLATRFIPGGKASRGQRALVFLTTSPQGNFVGSDWQQNSVVFCDGLGQVIWEYKGPGLHGCQPGSVSVDKKGYIFLTLREVNKVVILDPKGSLLGDFLTAYHGLEKPRVTTMVDGKYLVVSLSNGTIHVFRVRFPDS",stoichiometry N,[2],4
